The values below are quoted from earlier work in PMC4705221.

Like-named read-outs stand apart in the source and are kept apart here.

The target of series [1] is MK2 (Homo sapiens) (UniProt P49137).
For series [2] the target is unchanged. The source holds these as a separate data set.

UniProt P49137, sequence (P49137 whole entry): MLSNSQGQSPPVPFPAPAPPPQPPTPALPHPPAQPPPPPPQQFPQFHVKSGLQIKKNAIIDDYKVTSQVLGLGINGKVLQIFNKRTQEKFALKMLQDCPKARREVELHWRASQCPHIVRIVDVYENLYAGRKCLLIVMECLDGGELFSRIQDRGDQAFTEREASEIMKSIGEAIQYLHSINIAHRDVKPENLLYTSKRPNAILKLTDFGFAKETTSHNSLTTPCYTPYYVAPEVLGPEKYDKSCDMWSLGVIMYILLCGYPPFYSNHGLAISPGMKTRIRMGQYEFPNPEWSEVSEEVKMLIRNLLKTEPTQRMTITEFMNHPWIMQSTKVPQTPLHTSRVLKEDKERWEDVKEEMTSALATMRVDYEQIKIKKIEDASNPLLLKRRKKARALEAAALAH

The term Kd denotes the free concentration of one partner at which half of the binding sites on the other are occupied at equilibrium, for simple one-to-one binding. For the substance p38α (from UniProt Q16539), the Kd with MK2 (Homo sapiens) [1] is 2.5 nM; with MK2 (Homo sapiens) [2], 60 nM.
